Measurements: article PMC2186165

Molecular target: B lymphocyte surface IgM (mouse (endogenous in spleen cells))
Experiment: cocapping

B lymphocyte surface IgM (mouse (endogenous in spleen cells)), sequence (P01872 whole entry): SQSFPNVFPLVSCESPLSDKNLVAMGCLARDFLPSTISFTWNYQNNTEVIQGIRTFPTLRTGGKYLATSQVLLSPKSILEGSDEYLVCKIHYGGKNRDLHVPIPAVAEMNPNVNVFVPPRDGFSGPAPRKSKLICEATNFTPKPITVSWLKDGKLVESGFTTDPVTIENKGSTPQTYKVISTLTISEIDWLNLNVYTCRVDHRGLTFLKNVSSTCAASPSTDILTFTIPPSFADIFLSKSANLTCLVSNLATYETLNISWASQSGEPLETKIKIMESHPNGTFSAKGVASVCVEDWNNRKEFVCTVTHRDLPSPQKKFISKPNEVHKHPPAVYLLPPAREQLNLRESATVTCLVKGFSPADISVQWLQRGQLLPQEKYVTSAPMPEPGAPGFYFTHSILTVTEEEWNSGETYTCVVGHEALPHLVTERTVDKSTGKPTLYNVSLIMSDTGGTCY

Substance: B lymphocyte Fc IgG receptor (from UniProt P08101 30-330)
- % of B lymphocytes with capped sIgM that also had capped FcGR (12 experiments): 86%
- % of FcGR-positive cells with FcGR capped (Table III, experiment B, part 4): 62%
- % of FcGR-positive cells with FcGR capped (Table IV, part 4): 46%
